B1: "Na(+)/H(+) exchange regulatory cofactor NHE-RF1" (Homo sapiens), O14745 (parent)
chain: MSADAAAGAPLPRLCCLEKGPNGYGFHLHGEKGKLGQYIRLVEPGSPAEKAGLLAGDRLVEVNGENVEKETHQQVVSRIRAALNAVRLLVVDPETDEQLQKLGVQVREELLRAQEAPGQAEPPAAAEVQGAGNENEPREADKSHPEQRELRPRLCTMKKGPSGYGFNLHSDKSKPGQFIRSVDPDSPAEASGLRAQDRIVEVNGVCMEGKQHGDVVSAIRAGGDETKLLVVDRETDEFFKKCRVIPSQEHLNGPLPVPFTNGEIQKENSREALAEAALESPRPALVRSASSDTSEELNSQDSPPKQDSTAPSSTSSSDPILDFNISLAMAKERAHQKRSSKRAPQMDWSKKNELFSNL
partner: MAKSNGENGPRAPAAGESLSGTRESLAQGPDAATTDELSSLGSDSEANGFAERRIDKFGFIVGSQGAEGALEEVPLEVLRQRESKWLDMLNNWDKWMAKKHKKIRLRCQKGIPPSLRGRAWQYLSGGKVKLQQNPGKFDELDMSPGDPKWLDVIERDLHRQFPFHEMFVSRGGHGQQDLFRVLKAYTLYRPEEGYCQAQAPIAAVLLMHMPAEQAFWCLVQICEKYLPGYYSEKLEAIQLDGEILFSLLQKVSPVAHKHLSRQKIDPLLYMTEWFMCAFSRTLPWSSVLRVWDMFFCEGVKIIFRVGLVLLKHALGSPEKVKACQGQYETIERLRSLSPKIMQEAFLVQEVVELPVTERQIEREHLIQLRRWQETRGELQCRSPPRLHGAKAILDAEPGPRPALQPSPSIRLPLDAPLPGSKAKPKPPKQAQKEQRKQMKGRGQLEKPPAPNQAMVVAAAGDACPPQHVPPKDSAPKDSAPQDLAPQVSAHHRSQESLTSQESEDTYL
B2: "Na(+)/H(+) exchange regulatory cofactor NHE-RF1" (Homo sapiens), O14745 (parent)
chain: B1 chain

Variants of: B1
Conditions: with tb10a_human TBC1D10A

Row | effect of a mutation on the interaction | Variant
1 | with no effect | MSADAAAGAPLPRLCCLEKGPNGYGFHLHGEKGKLGQYIRLVEPGSPAEKAGLLAGDRLVEVNGENVEKETHQQVVSRIRAALNAVRLLVVDPETDEQLQKLGVQVREELLRAQEAPGQAEPPAAAEVQGAGNENEPREADKSHPEQRELRPRLCTMKKGPDGYGFNLHSDKSKPGQFIRSVDPDSPAEASGLRAQDRIVEVNGVCMEGKQHGDVVSAIRAGGDETKLLVVDRETDEFFKKCRVIPSQEHLNGPLPVPFTNGEIQKENSREALAEAALESPRPALVRSASSDTSEELNSQDSPPKQDSTAPSSTSSSDPILDFNISLAMAKERAHQKRDDKRAPQMDWSKKNELFSNL [S162D;S339D;S340D]

Variants of: B2
Conditions: with ezri_human EZR

Row | Variant | effect of a mutation on the interaction
2 | MSADAAAGAPLPRLCCLEKGPNGYGFHLHGEKGKLGQYIRLVEPGSPAEKAGLLAGDRLVEVNGENVEKETHQQVVSRIRAALNAVRLLVVDPETDEQLQKLGVQVREELLRAQEAPGQAEPPAAAEVQGAGNENEPREADKSHPEQRELRPRLCTMKKGPDGYGFNLHSDKSKPGQFIRSVDPDSPAEASGLRAQDRIVEVNGVCMEGKQHGDVVSAIRAGGDETKLLVVDRETDEFFKKCRVIPSQEHLNGPLPVPFTNGEIQKENSREALAEAALESPRPALVRSASSDTSEELNSQDSPPKQDSTAPSSTSSSDPILDFNISLAMAKERAHQKRDDKRAPQMDWSKKNELFSNL [S162D;S339D;S340D] | decreasing interaction strength
3 | MSADAAAGAPLPRLCCLEKGPNGYGFHLHGEKGKLGQYIRLVEPGSPAEKAGLLAGDRLVEVNGENVEKETHQQVVSRIRAALNAVRLLVVDPETDEQLQKLGVQVREELLRAQEAPGQAEPPAAAEVQGAGNENEPREADKSHPEQRELRPRLCTMKKGPAGYGFNLHSDKSKPGQFIRSVDPDSPAEASGLRAQDRIVEVNGVCMEGKQHGDVVSAIRAGGDETKLLVVDRETDEFFKKCRVIPSQEHLNGPLPVPFTNGEIQKENSREALAEAALESPRPALVRSASSDTSEELNSQDSPPKQDSTAPSSTSSSDPILDFNISLAMAKERAHQKRAAKRAPQMDWSKKNELFSNL [S162A;S339A;S340A] | decreasing interaction strength

The next lines start with the values.

Row | effect of a mutation on the interaction | Variant
4 | decreasing interaction strength | MSADAAAGAPLPRLCCLEKGPNGYGFHLHGEKGKLGQYIRLVEPGSPAEKAGLLAGDRLVEVNGENVEKETHQQVVSRIRAALNAVRLLVVDPETDEQLQKLGVQVREELLRAQEAPGQAEPPAAAEVQGAGNENEPREADKSHPEQRELRPRLCTMKKGPSGYGFNLHSDKSKPGQFIRSVDPDSPAEASGLRAQDRIVEVNGVCMEGKQHGDVVSAIRAGGDETKLLVVDRETDEFFKKCRVIPSQEHLNGPLPVPFTNGEIQKENSREALAEAALEDPRPALVRSASSDTSEELNSQDDPPKQDSTAPSSTSSSDPILDFNISLAMAKERAHQKRSSKRAPQMDWSKKNELFSNL [S280D;S302D]
5 | decreasing interaction strength | MSADAAAGAPLPRLCCLEKGPNGYGFHLHGEKGKLGQYIRLVEPGSPAEKAGLLAGDRLVEVNGENVEKETHQQVVSRIRAALNAVRLLVVDPETDEQLQKLGVQVREELLRAQEAPGQAEPPAAAEVQGAGNENEPREADKSHPEQRELRPRLCTMKKGPSGYGFNLHSDKSKPGQFIRSVDPDSPAEASGLRAQDRIVEVNGVCMEGKQHGDVVSAIRAGGDETKLLVVDRETDEFFKKCRVIPSQEHLNGPLPVPFTNGEIQKENSREALAEAALEAPRPALVRSASSDTSEELNSQDAPPKQDSTAPSSTSSSDPILDFNISLAMAKERAHQKRSSKRAPQMDWSKKNELFSNL [S280A;S302A]

Variants of: B2
Conditions: with ezri_human EZR
Remark: another data set of the same source

Row | effect of a mutation on the interaction | Variant
6 | with no effect | MSADAAAGAPLPRLCCLEKGPNGYGFHLHGEKGKLGQYIRLVEPGSPAEKAGLLAGDRLVEVNGENVEKETHQQVVSRIRAALNAVRLLVVDPETDEQLQKLGVQVREELLRAQEAPGQAEPPAAAEVQGAGNENEPREADKSHPEQRELRPRLCTMKKGPSGYGFNLHSDKSKPGQFIRSVDPDSPAEASGLRAQDRIVEVNGVCMEGKQHGDVVSAIRAGGDETKLLVVDRETDEFFKKCRVIPSQEHLNGPLPVPFTNGEIQKENSREALAEAALESPRPALVRSASSDTSEELNSQDSPPKQDSTAPSSTSSSDPILDFNISLAMAKERAHQKRSSKRAPQMDWSKKNELASNL [F355A]
7 | disrupting interaction strength | MSADAAAGAPLPRLCCLEKGPNGYGFHLHGEKGKLGQYIRLVEPGSPAEKAGLLAGDRLVEVNGENVEKETHQQVVSRIRAALNAVRLLVVDPETDEQLQKLGVQVREELLRAQEAPGQAEPPAAAEVQGAGNENEPREADKSHPEQRELRPRLCTMKKGPSGYGFNLHSDKSKPGQFIRSVDPDSPAEASGLRAQDRIVEVNGVCMEGKQHGDVVSAIRAGGDETKLLVVDRETDEFFKKCRVIPSQEHLNGPLPVPFTNGEIQKENSREALAEAALESPRPALVRSASSDTSEELNSQDSPPKQDSTAPSSTSSSDPILDFNISLAMAKERAHQKRSSKRAPQMDWSKKNELRSNL [F355R]
8 | decreasing interaction strength | MSADAAAGAPLPRLCCLEKGPNGYGFHLHGEKGKLGQYIRLVEPGSPAEKAGLLAGDRLVEVNGENVEKETHQQVVSRIRAALNAVRLLVVDPETDEQLQKLGVQVREELLRAQEAPGQAEPPAAAEVQGAGNENEPREADKSHPEQRELRPRLCTMKKGPSGYGFNLHSDKSKPGQFIRSVDPDSPAEASGLRAQDRIVEVNGVCMEGKQHGDVVSAIRAGGDETKLLVVDRETDEFFKKCRVIPSQEHLNGPLPVPFTNGEIQKENSREALAEAALESPRPALVRSASSDTSEELNSQDSPPKQDSTAPSSTSSSDPILDFNISLAMAKERAHQKRSSKRAPQADASKKNELFSNL [M346A;W348A]

— IntAct's records for PubMed 20937695
